From patent publication US20120316071A1 (published 2012)
Substitutions are numbered along the chain they refer to. In names and notes the source's numbering stands.

B1: Fab VH5-51_IGHD5-18*01>3_IGHJ4*01 G100K/G104T G24T/S28R/G35V (H:KT TRV) & V3-4_IGLJ1*01 V91I (Fab, V domains shown)
VH: EVQLVQSGAEVKKPGESLKISCKTSGYRFTSYWIVWVRQMPGKGLEWMGIIYPGDSDTRYSPSFQGQVTISADKSISTAYLQWSSLKASDTAMYYCARRKYSYTYDYFDYWGQGTLVTVSS
VL: QTVVTQEPSFSVSPGGTVTLTCGLSSGSVSTSYYPSWYQQTPGQAPRTLIYSTNTRSSGVPDRFSGSILGNKAALTITGAQADDESDYYCILYMGSGISYVFGTGTKVTVL
notes: Fab; expressed from plasmid A (CH1, His6 and Flag tags) and plasmid E (lambda CL)
B2: Fab VH5-51_IGHD5-18*01>3_IGHJ4*01 G100K/G104T G24T/S28R/G35V (H:KT TRV) & V3-4_IGLJ1*01 V91C (Fab, V domains shown)
VH: B1 VH
VL: B1 VL with I91C
notes: as for B1
B3: Fab VH5-51_IGHD5-18*01>3_IGHJ4*01 G100K/G104T G24T/S28R/G35V (H:KT TRV) & V3-4_IGLJ1*01 S96W (Fab, V domains shown)
VH: B1 VH
VL: B1 VL with I91V, S96W
notes: as for B1
B4: Fab VH5-51_IGHD5-18*01>3_IGHJ4*01 G100K/G104T G24T/S28R/G35V (H:KT TRV) & V3-4_IGLJ1*01 V91T (Fab, V domains shown)
VH: B1 VH
VL: B1 VL with I91T
notes: as for B1
B5: Fab VH5-51_IGHD5-18*01>3_IGHJ4*01 G100K/G104T G24T/S28R/G35V (H:KT TRV) & V3-4_IGLJ1*01 T55A (Fab, V domains shown)
VH: B1 VH
VL: B1 VL with T55A, I91V
notes: as for B1
B6: Fab VH5-51_IGHD5-18*01>3_IGHJ4*01 G100K/G104T G24T/S28R/G35V (H:KT TRV) & V3-4_IGLJ1*01 V91A (Fab, V domains shown)
VH: B1 VH
VL: B1 VL with I91A
notes: as for B1
B7: Fab VH5-51_IGHD5-18*01>3_IGHJ4*01 G100K/G104T G24T/S28R/G35V (H:KT TRV) & V3-4_IGLJ1*01 V91N (Fab, V domains shown)
VH: B1 VH
VL: B1 VL with I91N
notes: as for B1
B8: Fab VH5-51_IGHD5-18*01>3_IGHJ4*01 G100K/G104T G24T/S28R/G35V (H:KT TRV) & V3-4_IGLJ1*01 V91W (Fab, V domains shown)
VH: B1 VH
VL: B1 VL with I91W
notes: as for B1
B9: Fab VH5-51_IGHD5-18*01>3_IGHJ4*01 G100K/G104T G24T/S28R/G35V (H:KT TRV) & V3-4_IGLJ1*01 V91P (Fab, V domains shown)
VH: B1 VH
VL: B1 VL with I91P
notes: as for B1
B10: Fab VH5-51_IGHD5-18*01>3_IGHJ4*01 G100K/G104T G24T/S28R/G35V (H:KT TRV) & V3-4_IGLJ1*01 V91L (Fab, V domains shown)
VH: B1 VH
VL: B1 VL with I91L
notes: as for B1
B11: Fab VH5-51_IGHD5-18*01>3_IGHJ4*01 G100K/G104T G24T/S28R/G35V (H:KT TRV) & V3-4_IGLJ1*01 V91S (Fab, V domains shown)
VH: B1 VH
VL: B1 VL with I91S
notes: as for B1
B12: Fab VH5-51_IGHD5-18*01>3_IGHJ4*01 G100K/G104T G24T/S28R/G35V (H:KT TRV) & V3-4_IGLJ1*01 V91G (Fab, V domains shown)
VH: B1 VH
VL: B1 VL with I91G
notes: as for B1
B13: Fab VH5-51_IGHD5-18*01>3_IGHJ4*01 G100K/G104T G24T/S28R/G35V (H:KT TRV) & V3-4_IGLJ1*01 V91E (Fab, V domains shown)
VH: B1 VH
VL: B1 VL with I91E
notes: as for B1
B14: Fab VH5-51_IGHD5-18*01>3_IGHJ4*01 G100K/G104T G24T/S28R/G35V (H:KT TRV) & V3-4_IGLJ1*01 S96G (Fab, V domains shown)
VH: B1 VH
VL: B1 VL with I91V, S96G
notes: as for B1
B15: Fab VH5-51_IGHD5-18*01>3_IGHJ4*01 G100K/G104T G24T/S28R/G35V (H:KT TRV) & V3-4_IGLJ1*01 V91H (Fab, V domains shown)
VH: B1 VH
VL: B1 VL with I91H
notes: as for B1
B16: Fab VH5-51_IGHD5-18*01>3_IGHJ4*01 G100K/G104T G24T/S28R/G35V (H:KT TRV) & V3-4_IGLJ1*01 T78S (Fab, V domains shown)
VH: B1 VH
VL: B1 VL with T78S, I91V
notes: Fab; expressed in E. coli with CH1 (Plasmid A, His6 and Flag tags) and lambda CL (Plasmid E); also called H:KT TRV & T78S
B17: Fab VH5-51_IGHD5-18*01>3_IGHJ4*01 G100K/G104T G24T/S28R/G35V (H:KT TRV) & V3-4_IGLJ1*01 S96A (Fab, V domains shown)
VH: B1 VH
VL: B1 VL with I91V, S96A
notes: Fab; expressed in E. coli with CH1 (Plasmid A, His6 and Flag tags) and lambda CL (Plasmid E); also called H:KT TRV & S96A
B18: Fab VH5-51_IGHD5-18*01>3_IGHJ4*01 G100K/G104T G24T/S28R/G35V (H:KT TRV) & V3-4_IGLJ1*01 T31A (Fab, V domains shown)
VH: B1 VH
VL: B1 VL with T31A, I91V
notes: Fab; expressed in E. coli with CH1 (Plasmid A, His6 and Flag tags) and lambda CL (Plasmid E); also called H:KT TRV & T31A
B19: Fab VH5-51_IGHD5-18*01>3_IGHJ4*01 G100K/G104T G24T/S28R/G35V (H:KT TRV) & V3-4_IGLJ1*01 S30A (Fab, V domains shown)
VH: B1 VH
VL: B1 VL with S30A, I91V
notes: Fab; expressed in E. coli with CH1 (Plasmid A, His6 and Flag tags) and lambda CL (Plasmid E); also called H:KT TRV & S30A
B20: Fab VH5-51_IGHD5-18*01>3_IGHJ4*01 G100K/G104T G24T/S28R/G35V (H:KT TRV) & V3-4_IGLJ1*01 T78V (Fab, V domains shown)
VH: B1 VH
VL: B1 VL with T78V, I91V
notes: Fab; expressed in E. coli with CH1 (Plasmid A, His6 and Flag tags) and lambda CL (Plasmid E); also called H:KT TRV & T78V
B21: Fab VH5-51_IGHD5-18*01>3_IGHJ4*01 G100K/G104T G24T/S28R/G35V (H:KT TRV) & V3-4_IGLJ1*01 S28A (Fab, V domains shown)
VH: B1 VH
VL: B1 VL with S28A, I91V
notes: Fab; expressed in E. coli with CH1 (Plasmid A, His6 and Flag tags) and lambda CL (Plasmid E); also called H:KT TRV & S28A
B22: Fab VH5-51_IGHD5-18*01>3_IGHJ4*01 G100K/G104T G24T/S28R/G35V (H:KT TRV) & V3-4_IGLJ1*01 T78L (Fab, V domains shown)
VH: B1 VH
VL: B1 VL with T78L, I91V
notes: Fab; expressed in E. coli with CH1 (Plasmid A, His6 and Flag tags) and lambda CL (Plasmid E); also called H:KT TRV & T78L

Each binder was assayed against T1, Recombinant Human DLL4 (human, UniProt Q9NR61 27-524) (assay: ELISA, DLL4 coated on the plate, Fab at 100 nM, signal minus blank).
T1 construct: Bought recombinant human DLL4 (R&D Systems Cat#1506-D4/CF); also called delta-like protein 4; Delta-like 4

Row | ELISA Signal-blank (100 nM Fab) | Binder
1 | 0.336 | B1
2 | 0.625 | B2
3 | 0.261 | B3
4 | 0.197 | B4
5 | 0.382 | B5
6 | 0.529 | B6
7 | 0.203 | B7
8 | 0.08 | B8
9 | 0.078 | B9
10 | 0.734 | B10
11 | 0.264 | B11
12 | 0.248 | B12
13 | 0.152 | B13
14 | 0.562 | B14
15 | 0.127 | B15

These binders were tested against T2, Recombinant Human DLL4 (human, UniProt Q9NR61 27-524) (assay: ELISA, DLL4 coated on plate, Fab at 100 nM, absorbance at 450 nm minus blank).
T2 construct: also called delta-like protein 4; rHuman DLL4

Row | ELISA Signal-blank (100 nM Fab) | Binder
16 | 0.093 | B16
17 | 0.436 | B17
18 | 0.552 | B18
19 | 0.344 | B19
20 | 0.34 | B20
21 | 0.478 | B21
22 | 0.347 | B22
